Where a chain is given by its changes, count along the chain named.
T1: P8A
T1 construct: also called hCD27 P8A
T1 receptor: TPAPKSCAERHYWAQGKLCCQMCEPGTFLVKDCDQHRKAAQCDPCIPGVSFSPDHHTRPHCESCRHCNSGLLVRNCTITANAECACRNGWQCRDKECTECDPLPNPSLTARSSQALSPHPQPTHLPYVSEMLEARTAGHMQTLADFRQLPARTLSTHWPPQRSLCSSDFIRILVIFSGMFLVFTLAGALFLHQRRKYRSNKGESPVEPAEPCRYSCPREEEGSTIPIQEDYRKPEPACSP

T2: W90A
T2 construct: also called hCD27 W90A
T2 receptor: T1 receptor with A8P, W90A

T3: P44A
T3 construct: also called hCD27 P44A
T3 receptor: T1 receptor with A8P, P44A

T4: S63A
T4 construct: also called hCD27 S63A
T4 receptor: T1 receptor with A8P, S63A

B1: hCD27.15-6B (humanized hCD27.15, human IgG4, Clone 6B) (antibody, V domains shown)
VH: QVQLVQSGAEVKKPGASVKVSCKASGFIIKATYMHWVRQAPGQRLEWMGRIDPANGETKYDPKFQVRVTITADTSASTAYMELSSLRSEDTAVYYCARYAWYFDVWGQGTLVTVSS
VL: DIQMTQSPSSLSASVGDRVTITCRASENIYSFLAWYQQKPGKAPKLLIYHAKTLAEGVTSRFSGSGSGTDFTLTISSLQPEDSATYYCQHYYGSPLTFGQGTRLEIKR
notes: humanized version of hCD27.15 from WO2012/004367 with identical CDR regions; also called hCD27.15 (humanized 6B); hCD27.15 6B humanized antibody

Key:
[1] = target: Macaca mulatta CD27 (mmCD27), expressed on cells (Macaca mulatta (rhesus); same entry given for cynomolgus monkey); assay: flow cytometry MFI on CD8+ T cells from rhesus peripheral blood
Chain of Macaca mulatta CD27 (mmCD27), expressed on cells (Macaca mulatta (rhesus); same entry given for cynomolgus monkey) (chain, as listed by the source): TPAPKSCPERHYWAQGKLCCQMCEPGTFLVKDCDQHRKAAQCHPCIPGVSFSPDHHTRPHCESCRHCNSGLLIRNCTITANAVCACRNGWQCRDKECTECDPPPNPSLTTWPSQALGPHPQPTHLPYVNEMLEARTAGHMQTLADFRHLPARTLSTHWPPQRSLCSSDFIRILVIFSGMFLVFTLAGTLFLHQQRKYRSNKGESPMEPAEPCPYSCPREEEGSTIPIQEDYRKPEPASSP

[2] = target: T1, P8A; assay: flow cytometry, CHO-K1; single column;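 also: CHO-K1 cells transiently transfected with hCD27 alanine mutant constructs, anti-hCD27 antibody binding measured by flow cytometry, 30 min at 4 °C, wild-type hCD27 binding taken as 100%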
Procedure: (§1) The ability of several anti-hCD27 antibodies to bind to a series of hCD27 alanine mutants was determined using CHO-K1 cells, transiently transfected pCI-neo empty vector, pCI-neo.hCD27 and several pCI-neo.CD27Ala mutant constructs.
(§2) Detached cells were transferred to 96 wells round-bottomed well plates at approximately 1.2×10⁵ cells/well. After spinning down the cells, discarding the supernatants and re-suspending the cells in the residual volume, the primary antibodies were added and incubated for 30 minutes at 4° C. Cells were washed three times with DPBS/BSA 1%, followed by centrifugation, discarding of the supernatants and re-suspension in the residual volume. […] After washing once, antibody binding was detected using the HTS plate reader (FACS Canto II) and FlowJo software for data analysis. Debris, dead cells and doublets were excluded from the analysis. Binding was expressed as the geometric mean of the FITC signal, relative to antibody binding to hCD27, which was set at 100%.

[3] = target: T2, W90A; assay: flow cytometry, CHO-K1; single column;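 also: CHO-K1 cells transiently transfected with hCD27 alanine mutant constructs, anti-hCD27 antibody binding measured by flow cytometry, 30 min at 4 °C, wild-type hCD27 binding taken as 100%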
Procedure: as §1, §2

[4] = target: T3, P44A; assay: flow cytometry, CHO-K1; single column;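 also: CHO-K1 cells transiently transfected with hCD27 alanine mutant constructs, anti-hCD27 antibody binding measured by flow cytometry, 30 min at 4 °C, wild-type hCD27 binding taken as 100%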
Procedure: as §1, §2

[5] = target: T4, S63A; assay: flow cytometry, CHO-K1; single column;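 also: CHO-K1 cells transiently transfected with hCD27 alanine mutant constructs, anti-hCD27 antibody binding measured by flow cytometry, 30 min at 4 °C, wild-type hCD27 binding taken as 100%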
Procedure: as §1, §2

Molecule	EC50 [1] [nM]	% of WT hCD27 binding (geo mean FITC) [2] [%]	% of WT hCD27 binding (geo mean FITC) [3] [%]	% of WT hCD27 binding (geo mean FITC) [4] [%]	% of WT hCD27 binding (geo mean FITC) [5] [%]
1F5 hIgG1 (antibody)	1.92				
B1		63	93.8	68.7	104

Reference: patent US20190300618A1 (Merck Sharp & Dohme, published 2019)
